According to patent US20220389077A1, “ALLOGENEIC CELL COMPOSITIONS AND METHODS OF USE” (Poseida Therapeutics, Inc., priority 2018, published 2022):

Columns and labels:
human CD58 = target: T1, human CD58 (Homo sapiens, UniProt P19256); assay: T cell degranulation (CD107a) against CD58-positive cell targets; format: cell-based; details: 4-6 hours coculture; K562 or Rat2 cells with mRNA encoding human CD58
T1 construct: expressed in transfected cells; host or cells: K562 (electroporated) or Rat2 (lipofected) cells
T1 sequence (P19256 29-250): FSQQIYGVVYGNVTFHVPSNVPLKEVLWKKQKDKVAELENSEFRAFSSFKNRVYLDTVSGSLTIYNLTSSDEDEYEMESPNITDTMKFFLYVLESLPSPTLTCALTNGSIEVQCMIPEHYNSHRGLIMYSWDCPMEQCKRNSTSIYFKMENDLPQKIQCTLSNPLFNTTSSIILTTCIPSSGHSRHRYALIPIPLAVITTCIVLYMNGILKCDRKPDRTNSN
Experimental: FIG. 23B is a series of bar graphs showing CSR CD2z mutant degranulation data. The panel of CSR CD2z mutants was tested for the capability of mediating degranulation against CD58-positive cell targets. T cell degranulation is a surrogate of T cell killing that can be measured by FACS staining for intracellular CD107a expression following coculture with target cell lines expressing target antigen. Specifically, pan T cells from normal blood donors were stimulated with anti-CD3/anti-CD28 beads in standard T cell culture media, then rested. These cells were then electroporated (BTX ECM 830 electroporator @ 500V for 700 μs) with 9 μg of mRNA expressing CSR CD2z mutants and cultured overnight. The next day, the cells were cocultured for 4-6 hours in the presence of various target cell lines. Positive target cell lines included K562 cells or Rat2 cells that were electroporated or lipofected, respectively, with mRNA encoding human CD58, while negative controls were either Rat2 cells that were not electroporated or CSR CD2z mutant expressing T cells alone.
FIG. 23C is a summary of staining and degranulation data. Data from surface-expression and binding studies, as well as those from degranulation experiments for each CSR CD2z mutant is summarized in the table.
FIG. 23D is a series of flow cytometry plots showing the expression of CD48, CD58 or CD59 on K562 and Rat2 cells. To confirm possible ligands for the CSR WT CD2z molecule, a panel of known and suspected ligands including human CD48, CD58, and CD59 were tested. Degranulation of engineered T cells was evaluated against the cell lines K562 and Rat2 that were made to overexpress the target ligands and confirmed for expression by FACS staining. Red histograms are unstained cells and blue histograms are cells that were electroporated/lipofected with mRNA and then stained for expression of the respective marker by FACS.
FIG. 23E is a bar graph showing that CSR CD2z recognizes human CD58, but not CD48 or CD59. To confirm possible ligands for the CSR WT CD2z molecule, a panel of known and suspected ligands including human CD48, CD58, and CD59 were tested. Degranulation of engineered T cells was evaluated against the cell lines K562 and Rat2 that were made to overexpress the target ligands and confirmed for expression by FACS staining. Cells were electroporated/lipofected with mRNA and then stained for expression of the respective marker by FACS. As a control, a BCMA CAR was included as well as a K562 cell line overexpressing BCMA. In addition, T cells transfected with GFP were also included as a control. T cell degranulation is a surrogate of T cell killing that can be measured by FACS staining for intracellular CD107a expression following coculture with target cell lines expressing target antigen. Pan T cells from normal blood donors were stimulated with anti-CD3/anti-CD28 beads in standard T cell culture media, then rested. These T cells were then electroporated with mRNA expressing CSR WT CD2z, BCMA CAR, or GFP and cultured overnight. The next day, the cells were cocultured for 4-6 hours in the presence of the various target cell lines that were electroporate/lipofected with mRNA encoding human CD48, CD58 or CD59, while negative controls were either K562 or Rat2 cells that were not electroporated/lipofected, or each of the electroporated T cells alone.

TCRb and b2M = assay: Gene editing (knockout of TCR and MHCI) of Allo CAR-T cells with CSR; format: cell-based, human; details: up to 14-day culture; CSR stable or transient
Description: Pan T cells isolated from healthy donor blood were genetically modified using the piggyBac® DNA modification system in combination with the Cas-CLOVER™ gene-editing system (CC) to produce allogeneic (Allo) CAR-T cells. […] Following EP, all cells were subsequently stimulated with a cocktail of agonist mAbs anti-CD2, anti-CD3 and anti-CD28, and were later selected for genetic modification over the course of up to a 14-day culture period using the selection gene. At the end of the initial culture period, all T cells expressed the CAR, indicating successful selection for genetically-modified cells (data not shown). All samples were performed in duplicate, and data is shown in bar graph where error bars represent standard deviation.

Allo CAR-T cells = assay: Expansion of Allo CAR-T cells with WT or mutant (D111H) CSR CD2z; format: cell-based, human; details: up to 15-day culture; CSR stable or transient
Description: FIG. 24A is a bar graph showing that the delivery of CSR CD2z-D111H mutant enhances the expansion of Allo CAR-T cells. Pan T cells isolated from healthy donor blood were genetically modified using the piggyBac® DNA modification system in combination with the Cas-CLOVER™ gene-editing system (CC) for the production of allogeneic (Allo) CAR-T cells, or without CC gene-editing, as a control, for the production of autologous (Auto) CAR-T without a CSR (No CSR); auto CAR-T cells were produced by nucleofection of an mRNA encoding the super piggyBac™ transposase enzyme (SPB) and a transposon encoding a CAR, selection gene and a safety switch. […] Following EP, all cells were subsequently stimulated with a cocktail of agonist mAbs anti-CD2, anti-CD3 and anti-CD28, and were later selected for genetic modification over the course of up to a 15-day culture period using the selection gene. At the end of the initial culture period, all T cells expressed the CAR, indicating successful selection for genetically-modified cells (data not shown), and then all non-edited TCR-positive cells were depleted via negative selection to yield a population of Allo CAR-T cells that were >99% TCR-negative (data not shown).

B1: CD2z CSR: chimeric stimulatory receptor: CD2 signal peptide, extracellular, transmembrane and cytoplasmic domains with CD3z intracellular domain (SEQ ID NO: 17062) (protein)
chain: MSFPCKFVASFLLIFNVSSKGAVSKEITNALETWGALGQDINLDIPSFQMSDDIDDIKWEKTSDKKKIAQFRKEKETFKEKDTYKLFKNGTLKIKHLKTDDQDIYKVSIYDTKGKNVLEKIFDLKIQERVSKPKISWTCINTTLTCEVMNGTDPELNLYQDGKHLKLSQRVITHKWTTSLSAKFKCTAGNKVSKESSVEPVSCPEKGLDIYLIIGICGGGSLLMVFVALLVFYITKRKKQRSRRNDEELETRAHRVATEERGRKPHQIPASTPQNPATSQHPPPPPGHRSQAPSHRPPPPGHRVQHQPQKRPPAPSGTQVHQQKGPPLPRPRVQPKPPHGAAENSLSPSSNRVKFSRSADAPAYKQGQNQLYNELNLGRREEYDVLDKRRGRDPEMGGKPRRKNPQEGLYNELQKDKMAEAYSEIGMKGERRRGKGHDGLYQGLSTATKDTYDALHMQALPPR
B1 was tested, and the “degranulation (CD107a) against CD58” value (human CD58) was “capable of degranulating at levels above background”, the “degree of gene editing compared to Allo CAR-T cells produced without a CSR” value (TCRb and b2M) was “a similar or greater degree of gene editing” and the “peak expansion of Allo CAR-T cells compared to Allo CAR-T cells produced without a CSR” value (Allo CAR-T cells) was “a greater degree of expansion”.
